Patent US20250092426, “CAS ENDONUCLEASES AND RELATED METHODS” (Flagship Pioneering Innovations VII, LLC, published 2025)

Molecular target: T1, CasEnd-1 (synthetic construct)
T1 chain: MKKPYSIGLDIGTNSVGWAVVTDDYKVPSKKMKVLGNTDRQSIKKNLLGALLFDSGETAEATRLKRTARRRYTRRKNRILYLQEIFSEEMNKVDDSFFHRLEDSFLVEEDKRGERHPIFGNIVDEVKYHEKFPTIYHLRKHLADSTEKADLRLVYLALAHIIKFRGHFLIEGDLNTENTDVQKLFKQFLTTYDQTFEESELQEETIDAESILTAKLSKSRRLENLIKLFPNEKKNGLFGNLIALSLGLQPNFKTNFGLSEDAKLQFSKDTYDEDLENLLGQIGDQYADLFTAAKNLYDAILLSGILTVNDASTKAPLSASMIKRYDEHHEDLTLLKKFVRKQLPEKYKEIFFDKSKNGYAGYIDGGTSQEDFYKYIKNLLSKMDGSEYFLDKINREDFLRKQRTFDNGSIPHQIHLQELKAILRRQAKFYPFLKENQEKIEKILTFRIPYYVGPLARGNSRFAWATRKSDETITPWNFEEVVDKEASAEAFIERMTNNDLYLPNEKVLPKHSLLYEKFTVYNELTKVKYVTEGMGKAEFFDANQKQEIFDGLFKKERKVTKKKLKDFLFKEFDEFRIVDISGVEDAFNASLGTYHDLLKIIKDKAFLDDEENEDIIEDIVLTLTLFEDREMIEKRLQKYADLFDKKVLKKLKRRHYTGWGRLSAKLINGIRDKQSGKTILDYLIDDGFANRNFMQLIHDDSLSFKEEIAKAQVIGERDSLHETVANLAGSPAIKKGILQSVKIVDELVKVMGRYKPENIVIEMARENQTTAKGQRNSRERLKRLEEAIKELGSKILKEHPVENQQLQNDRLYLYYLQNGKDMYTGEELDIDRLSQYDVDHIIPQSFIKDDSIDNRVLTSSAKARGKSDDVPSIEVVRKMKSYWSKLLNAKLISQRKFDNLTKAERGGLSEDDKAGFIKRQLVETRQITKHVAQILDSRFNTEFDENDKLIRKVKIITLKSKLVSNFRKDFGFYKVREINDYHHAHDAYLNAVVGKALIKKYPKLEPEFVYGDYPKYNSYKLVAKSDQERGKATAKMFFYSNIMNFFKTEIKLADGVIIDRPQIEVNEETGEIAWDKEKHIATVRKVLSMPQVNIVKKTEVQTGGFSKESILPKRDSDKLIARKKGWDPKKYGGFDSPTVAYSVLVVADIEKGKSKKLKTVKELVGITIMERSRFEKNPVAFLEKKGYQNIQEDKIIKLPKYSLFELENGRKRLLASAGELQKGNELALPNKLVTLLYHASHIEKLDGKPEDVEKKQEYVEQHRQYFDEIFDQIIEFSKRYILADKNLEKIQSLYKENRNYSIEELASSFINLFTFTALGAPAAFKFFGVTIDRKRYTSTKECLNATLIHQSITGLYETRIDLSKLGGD
Test: cell_activity; +++; HEK293T; PAM not stated
Outline: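 Editing activity was scored as the fraction of GFP+ cells on day 4 by flow cytometry. BFP-expressing HEK293T cells (250,000) received by nucleofection 200 ng plasmid for the RT-Cas fusion protein and 200 ng template RNA plasmid designed to convert BFP to GFP.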

B1: BFP-to-GFP template RNA ; BFP reporter protospacer (ssRNA ; dsDNA)
RNA: GCCGAAGCACUGCACGCCGUGUUUUAGAGCUAGAAAUAGCAAGUUAAAAUAAGGCUAGUCCGUUAUCAACUUGAAAAAGUGGCACCGAGUCGGUGCACCCUGACGUACGGCGUGCAGUGCUU
DNA 1: GCCGAAGCACTGCACGCCGT
DNA 2: ACGGCGTGCAGTGCTTCGGC
- activity: ≥ 100 % of reference
